In the RNAGym collection of RNA variant scans (doi:10.1093/molbev/msab373) one finds reverse-splicing fitness data, which are given here for 15 variants.

B1: Azoarcus group I ribozyme (parent)
chain: GUGCCUUGCGCCGGGAAACCACGCAAGGGAUGGUGUCAAAUUCGGCGAAACCUAAGCGCCCGCCCGGGCGUAUGGCAACGCCGAGCCAAGCUUCGGCGCCUGCGCCGAUGAAGGUGUAGAGACUAGACGGCACCCACCUAAGGCAAACGCUAUGGUGAAGGCAUAGUCCAGGGAGUGGCGAAAGUCACACAAACCGG

The data set covers variants of B1. Kind of data set: reverse-splicing fitness (ratio to wild type); higher = more active; in vitro selection; Mg2+ level not given. Summed up: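 An in vitro group I ribozyme library with randomized positions was T7-transcribed and gel-purified. In triplicate, 10 pmol RNA in EPPS pH 7.5 was reacted with 50 pmoles of a 30-nt RNA substrate for 1 h at 37 °C across several added MgCl2 levels (1–48 mM), then stopped with EDTA. Products were reverse transcribed from a substrate-complementary primer, PCR-amplified and sequenced (HiSeq 4000). Fitness is a variant's read proportion after selection over that before, normalised to wild type.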
As to GUGCCUUGCGCCGGGAAACCACGCAAGGGAUGGUGUCAAAUUCGGCGAAACCUAAGCGCCCGCCCGGGCGUAUGGCAACGCUGAGCCAAGCUUCGGCGCCUGCGCCGAUGCAGGUGUAGAGACUAGACGGCACCCACCUAAGGCGAACGUUAUGGUGAAGGCAUAGUCCAGGGAGCGGCGAAAGUCACACAAACCGG [C82U A111C A145G C150U U176C], the reverse-splicing fitness was 0.085.
For GUGCCUUGCGCCGGGAAACCACGCAAGGGAUGGUGUCAAAUUCGGCGAAACCUAAGCGCCCGCCCGGGCGUAUGGCAACGCGGAGCCAAGCUUCGGCGCCUGCGCCGAUGAAGGUGUAGCGACUAGACGGCACCCACCUAAGGCAAACGGUAUGGUGAAGGCAUAGUCUAGGGAGUGGCGAAAGUCACACAAACCGG [C82G A120C C150G C169U] the value was 0.0121; for GUGCCUUGCGCCGGGAAACCACGCAAGGGAUGGUGUCAAAUUCGGCGAAACCUAAGCGCCCGCCCGGGCGUAUGGCAACGCUGAGCCAAGCUUCGGCGCCUGCGCCGAUGGAGGUGUAGGGACUAGACGGCACCCACCUAAGGCCAACGUUAUGGUGAAGGCAUAGUCAAGGGAGCGGCGAAAGUCACACAAACCGG [C82U A111G A120G A145C C150U C169A U176C], 0.00548; for GUGCCUUGCGCCGGGAAACCACGCAAGGGAUGGUGUCAAAUUCGGCGAAACCUAAGCGCCCGCCCGGGCGUAUGGCAACGCCGAGCCAAGCUUCGGCGCCUGCGCCGAUGUAGGUGUAGGGACUAGACGGCACCCACCUAAGGCGAACGGUAUGGUGAAGGCAUAGUCAAGGGAGUGGCGAAAGUCACACAAACCGG [A111U A120G A145G C150G C169A], 0.0157.
The figure for GUGCCUUGCGCCGGGAAACCACGCAAGGGAUGGUGUCAAAUUCGGCGAAACCUAAGCGCCCGCCCGGGCGUAUGGCAACGCCGAGCCAAGCUUCGGCGCCUGCGCCGAUGCAGGUGUAGUGACUAGACGGCACCCACCUAAGGCCAACGCUAUGGUGAAGGCAUAGUCUAGGGAGGGGCGAAAGUCACACAAACCGG [A111C A120U A145C C169U U176G] is 0.00215; for GUGCCUUGCGCCGGGAAACCACGCAAGGGAUGGUGUCAAAUUCGGCGAAACCUAAGCGCCCGCCCGGGCGUAUGGCAACGCGGAGCCAAGCUUCGGCGCCUGCGCCGAUGGAGGUGUAGGGACUAGACGGCACCCACCUAAGGCAAACGUUAUGGUGAAGGCAUAGUCAAGGGAGAGGCGAAAGUCACACAAACCGG [C82G A111G A120G C150U C169A U176A] it is 0.0193; for GUGCCUUGCGCCGGGAAACCACGCAAGGGAUGGUGUCAAAUUCGGCGAAACCUAAGCGCCCGCCCGGGCGUAUGGCAACGCAGAGCCAAGCUUCGGCGCCUGCGCCGAUGUAGGUGUAGUGACUAGACGGCACCCACCUAAGGCAAACGGUAUGGUGAAGGCAUAGUCCAGGGAGGGGCGAAAGUCACACAAACCGG [C82A A111U A120U C150G U176G] it is 0.00265.
As to GUGCCUUGCGCCGGGAAACCACGCAAGGGAUGGUGUCAAAUUCGGCGAAACCUAAGCGCCCGCCCGGGCGUAUGGCAACGCAGAGCCAAGCUUCGGCGCCUGCGCCGAUGGAGGUGUAGAGACUAGACGGCACCCACCUAAGGCCAACGCUAUGGUGAAGGCAUAGUCAAGGGAGCGGCGAAAGUCACACAAACCGG [C82A A111G A145C C169A U176C], the reverse-splicing fitness was 0.00756.
For GUGCCUUGCGCCGGGAAACCACGCAAGGGAUGGUGUCAAAUUCGGCGAAACCUAAGCGCCCGCCCGGGCGUAUGGCAACGCCGAGCCAAGCUUCGGCGCCUGCGCCGAUGGAGGUGUAGUGACUAGACGGCACCCACCUAAGGCGAACGAUAUGGUGAAGGCAUAGUCCAGGGAGGGGCGAAAGUCACACAAACCGG [A111G A120U A145G C150A U176G] the value was 0.0119; for GUGCCUUGCGCCGGGAAACCACGCAAGGGAUGGUGUCAAAUUCGGCGAAACCUAAGCGCCCGCCCGGGCGUAUGGCAACGCUGAGCCAAGCUUCGGCGCCUGCGCCGAUGAAGGUGUAGCGACUAGACGGCACCCACCUAAGGCCAACGAUAUGGUGAAGGCAUAGUCCAGGGAGUGGCGAAAGUCACACAAACCGG [C82U A120C A145C C150A], 0.0114.
For GUGCCUUGCGCCGGGAAACCACGCAAGGGAUGGUGUCAAAUUCGGCGAAACCUAAGCGCCCGCCCGGGCGUAUGGCAACGCUGAGCCAAGCUUCGGCGCCUGCGCCGAUGAAGGUGUAGUGACUAGACGGCACCCACCUAAGGCUAACGAUAUGGUGAAGGCAUAGUCUAGGGAGGGGCGAAAGUCACACAAACCGG [C82U A120U A145U C150A C169U U176G] the value was 0.00172.
On to GUGCCUUGCGCCGGGAAACCACGCAAGGGAUGGUGUCAAAUUCGGCGAAACCUAAGCGCCCGCCCGGGCGUAUGGCAACGCUGAGCCAAGCUUCGGCGCCUGCGCCGAUGCAGGUGUAGAGACUAGACGGCACCCACCUAAGGCGAACGGUAUGGUGAAGGCAUAGUCAAGGGAGAGGCGAAAGUCACACAAACCGG [C82U A111C A145G C150G C169A U176A], for which the reverse-splicing fitness came out at 0.0123.
The figure for GUGCCUUGCGCCGGGAAACCACGCAAGGGAUGGUGUCAAAUUCGGCGAAACCUAAGCGCCCGCCCGGGCGUAUGGCAACGCUGAGCCAAGCUUCGGCGCCUGCGCCGAUGGAGGUGUAGUGACUAGACGGCACCCACCUAAGGCUAACGUUAUGGUGAAGGCAUAGUCAAGGGAGAGGCGAAAGUCACACAAACCGG [C82U A111G A120U A145U C150U C169A U176A] is 0.00289; for GUGCCUUGCGCCGGGAAACCACGCAAGGGAUGGUGUCAAAUUCGGCGAAACCUAAGCGCCCGCCCGGGCGUAUGGCAACGCCGAGCCAAGCUUCGGCGCCUGCGCCGAUGCAGGUGUAGUGACUAGACGGCACCCACCUAAGGCGAACGCUAUGGUGAAGGCAUAGUCUAGGGAGGGGCGAAAGUCACACAAACCGG [A111C A120U A145G C169U U176G] it is 0.00322; for GUGCCUUGCGCCGGGAAACCACGCAAGGGAUGGUGUCAAAUUCGGCGAAACCUAAGCGCCCGCCCGGGCGUAUGGCAACGCAGAGCCAAGCUUCGGCGCCUGCGCCGAUGAAGGUGUAGAGACUAGACGGCACCCACCUAAGGCCAACGCUAUGGUGAAGGCAUAGUCAAGGGAGGGGCGAAAGUCACACAAACCGG [C82A A145C C169A U176G] it is 0.00487.
